Measured values: the supplement of paper PMC12042874
± gives the uncertainty stated by the source.

Assay: amyloid nucleation score (Sup35N fusion, yeast selection) (log enrichment); library NNK2; higher = more nucleation; inactive = no reads after selection
Procedure, shortened: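 Nucleation score is defined as the DiMSum log enrichment of output over input reads, with centring on the mode score of non-aggregating sequences. A minimum of 100 input reads was required for each sequence. Reads came from Illumina sequencing of plasmid inserts from psi-negative yeast expressing Sup35N fused to peptides of 20 random codons, induced with 100 μM copper sulfate for 24 hours and grown 7 days at 30°C on medium lacking adenine and uracil.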

Substance	amyloid nucleation score
QHRMDTDTNYFDKDVGHFIS	-0.984 ± 0.32
RVMRLGTLEDNWGDHGLSSR	-0.583 ± 0.44
GFWFFIYVDCVLCVSPTRIN	-0.663 ± 0.56
LWFLS	0.393 ± 0.33
MCDIVHY	-0.446 ± 0.79
MSITSC	inactive
VRLFLAIMVYVLHSHHRYAD	0.978 ± 0.74
MEGVAK	0.331 ± 0.8
IVRVSMGYGIIPLICSKTEG	0.859 ± 0.74
TFLWLT	2.33 ± 0.09
ILQFKVGKGQGNAQLFKPII	-0.935 ± 0.55
TCLMVVE	0.539 ± 0.66
VRNSSV	inactive
NHTSNIGSRGTAFFWVLR	7.187 ± 0.069
KFLKARFGYQST	1.3 ± 0.13
FFISALANR	inactive
IYLSLATCSGRRRSYSKPSR	0.645 ± 0.47
TMLEFNCSYLNI	2.98 ± 0.083
ASRNLMYVHNFSSAGLKVLP	0.178 ± 0.65
TLWVWVCCFQDWCSVSRGGR	8.892 ± 0.03
YMPPSCMSP	inactive
CFGMLS	-0.679 ± 1.1
IFRSSTLIDLKDLGLTSH	1.27 ± 0.096
TGHLEEMYKYDALYSSAKRA	1 ± 0.48
NRGEDSPSYPGCHHMKLCIC	inactive

Substance	amyloid nucleation score
RLRDRNDHVLRCSHYWIQDW	0.956 ± 0.57
WRYRHELEACWRHHSNSWYG	3.96 ± 0.052
RPMLVVSGGTSVLWDWAASD	0.422 ± 0.64
EIMCLHKNALCFQCSTSGCA	7.52 ± 0.046
TFWNFGLAVQTARGIWALSW	6.57 ± 0.082
TVLLSLSYADCSMLWLVRTL	-0.304 ± 1.1
TIYHSGRCLRKKGRELW	-0.139 ± 0.37
APFARSCDNWILGIFVFILG	6.125 ± 0.042
VYTCSIFYLGLVYRHISDSS	inactive
GNRSTVLRSNLDVYLQDGTV	1.51 ± 0.32
VPRFPA	inactive
MLDLIRLNDVICSQKFH	0.48 ± 0.64
RGHSALFTNFCGTMCGVVDG	0.148 ± 1
VKSTSFPTWMISMIGQRTAH	-0.711 ± 1.1
VKVPYMLARGLDQKGTRRWQ	8.102 ± 0.064
CFVVRE	0.404 ± 0.46
LYYVMSPWLITSRAWDGSSS	0.778 ± 0.67
DLTCSC	0.804 ± 0.3
NRIGDIGFSPNMCQAPNDVD	0.095 ± 0.53
ALSNGNVLHGLSMLSYMHCW	-0.388 ± 1.1
YCGTVFHGSRRECGISVRGW	1.19 ± 0.33
NGSSKIERDQRRWGQKAVDT	2.83 ± 0.089
WASWRSYSMWLDLLCFRSRG	0.155 ± 0.33
WSSHFWMFGSAVSQAWGRGW	3.17 ± 0.074
DTILWRSSHAEGTEAWHMGF	1.28 ± 0.38

Substance	amyloid nucleation score
WLFRGSIVKWTPHRPDRYAC	-0.088 ± 0.46
CEVLKHSCTDSEMHAKADGV	-0.307 ± 0.23
RKGSTGRDISSNSYIVY	inactive
NGVSMESRFQFSDWWNPTYY	-0.847 ± 0.64
CVIGCSGWKRIFIISILYRV	-0.562 ± 1
MNSIKMEGVRYNNPNDYTFC	-1.14 ± 1.1
HVWGQLSCFARVALSDRSKM	3.07 ± 0.16
MCEYLWCMGACNQASLTYLS	5.787 ± 0.032
FATKRERNVWFMSIEWFVRG	-0.707 ± 0.44
GVCMSLEVKNKKLSNEHNS	5.18 ± 0.092
WWETSIFFWEGIYT	-0.22 ± 0.8
YICRNLISESLCLYYTGARG	5.03 ± 0.065
YRVFMVPTWGGS	0.381 ± 0.56
VMNSVHVFQYTSCCLILVGL	6.945 ± 0.062
GMWFLRLSSFTCI	5.722 ± 0.049
TNYKRCCV	-0.12 ± 0.32
CSGYSERAPRFCSDLIVCST	0.574 ± 0.51
RVLGWCSNSWMVEMSNECSW	1.13 ± 0.3
KWTFLRLILTMV	-0.511 ± 0.56
VSISCSVWIMGRVYLIRYSG	-1.36 ± 0.78
SYLFIDDTVDCQLKERRYPN	-0.763 ± 0.62
WAYPRNVQ	0.327 ± 0.38
TMLCYYINFRLIVYRSWYKQ	-0.788 ± 0.34
YVLFFHGIMSCTPMQYQYMG	inactive
LAPLNSWKTY	-0.045 ± 0.56

Substance	amyloid nucleation score
SVNWEDKDLGVGSNLEIASL	-0.889 ± 1
CKKLMLILEFWMCMLSLNIA	3.58 ± 0.072
YLVDTSCRVGWTDVYFPVRV	inactive
LFPSLMAVNVQRSDTGPSHG	1.2 ± 0.45
TLAFVNNYDLRLELDRIEVP	inactive
YFGGLANKMLILSWR	0.294 ± 0.24
VRLVNAVNRRTKIHDIYLRV	0.664 ± 0.26
RYFINFSSLCHQLDILWRCV	-1.03 ± 0.76
TQMTMEGAYPCCVVVP	0.903 ± 0.74
QSVYMFRKNNDFPRGTAGSQ	-0.883 ± 1.1
PRRVDRW	0.339 ± 0.2
FYMLASPSSTLDSTPKVRSC	-0.665 ± 1.1
CCISMDVLWRLSEQP	6.385 ± 0.05
KSAYIGASNHAEIRHQSLSS	0.253 ± 0.24
LGPGLDLSIINYEWIIF	-0.202 ± 0.79
VCWGFSFATHGLWDMAF	-0.32 ± 0.26
GCVPVRYIARSAWNNPDLPN	0.829 ± 0.57
VLGWCCLVLSILLKCEKVGL	-0.095 ± 1.1
RYSFD	-0.588 ± 1.1
HIWRHDRVLLGSSNTKYMCG	0.759 ± 0.8
YTIIKWPL	-0.21 ± 0.79
FHLFSVGTEGTPRRRKFAGD	-0.481 ± 0.78
TMPFWKDFQT	0.183 ± 1
KASLGLFYTWVQLSLHISCG	-0.488 ± 1
ARRKVSHNV	0.205 ± 0.77

Substance	amyloid nucleation score
PYISWGSTGFVNAGRY	3.74 ± 0.072
MFILGAHGKFGSTTMGVLAC	-1.64 ± 0.62
IPEVESIGMGWGWREISGEC	1.42 ± 0.41
HLLPWMRVLYTYVCSNIQMF	-0.45 ± 0.36
RDMHLGRTEFVARYWELFRY	-0.473 ± 0.78
QASSGSKDLD	0.102 ± 0.23
HSHVRLWSLRFDAHPNWHDK	1.15 ± 0.27
LKLRSVKSFDFVWMIVAAEV	0.482 ± 0.26
CKTLVSGGL	-0.344 ± 0.41
SLYFGIRYENRERCLFDLHV	2.42 ± 0.17
SIGHNSSF	0.117 ± 0.49
LIFRFLGLVMLFQ	inactive
HFDEPFFCCAGMHAH	6.8 ± 0.056
TYEMTRMSGIKSSLLPREFW	1.52 ± 0.17
MIGNQNQGVCW	0.141 ± 0.29
SELLGLSIKAIYICCMSQME	-0.9 ± 0.61
RNSDGPLCSDGVVHFIRMLV	0.001 ± 0.65
PRSSAVYIRTLRVSQKVDPM	2.64 ± 0.11
RLWNSGCLS	-0.916 ± 0.76
ISPTKSNLYMADVEFREPGT	-0.883 ± 0.49
ARLLSG	0.626 ± 0.5
SSKTGWSHGIMVQPK	inactive
FSRLNSWILRSHGNKVKALT	0.552 ± 0.66
VPVSRILNLFFVLVTL	6.45 ± 0.086
GLYGMGIQMGPRISVSYPAA	0.536 ± 0.65

Substance	amyloid nucleation score
CYYVDIVVSHQRTTSVMVGD	0.698 ± 0.29
CFRKLQYISFYYTTWVILDA	inactive
RDHLFCG	0.654 ± 0.16
DKMYVIIVGPLAAMENVNNT	0.024 ± 0.48
SRKFFPVFN	inactive
TSNSTQLEDLV	0.309 ± 0.45
WYVLAWDPPLSFMCLGDV	0.666 ± 0.53
IWSYLRSSASWPMNASNTSA	0.905 ± 0.34
MTSALGWQIYVYLSGAEYET	0.31 ± 0.5
YVWSAKHSNIDCRVES	0.877 ± 0.36
PFCPFSEAVWMSTITLQHEG	-0.054 ± 0.32
HCLEMGCGLYNAR	9.476 ± 0.071
NRGISLGIHLRPGCMCAAHR	0.005 ± 1
ILWLTADFTLLISNYMCLS	inactive
GSNIEGY	-0.512 ± 0.46
LLTCTYMQF	-0.124 ± 0.54
HQRLTRVLYWKVDIGQVCGI	4.99 ± 0.065
WFIASLLYISLWFYICSTMS	0.878 ± 0.24
FSSILWRFSRLVVRSLVPKS	0.175 ± 0.27
WVDNRWEVSLSWAGYTIF	inactive
EFFALMDARVFVSVMLQEVD	-0.268 ± 0.63
VLILDVVYSLDESEVSVVWY	-0.429 ± 0.42
YGESVHTR	-0.446 ± 0.38
APPLTLELQYGWPLQRPLTK	0.275 ± 0.33
KRLCYVSYWIYSYSRDGELK	-1.23 ± 1.1

Substance	amyloid nucleation score
WFHVAAYAFRGTCYHLGGVL	4.39 ± 0.096
VSSAHYV	-0.657 ± 0.76
ALIKTLYY	-0.305 ± 0.48
RSLDEPSFFIPMPMYWVLGV	0.271 ± 0.65
MMWLGFYSCKGIGW	3.991 ± 0.039
NRCYHFRDCQVYLTQDASWA	8.515 ± 0.048
ATLNVLDPHFYNMY	-0.691 ± 0.41
FNVNRLAVLSYVSSWSGVIM	-0.772 ± 0.35
NYLYHLPYLRTSVLRRLRPV	0.426 ± 0.3
DLNYFSTMGEVLYMFSVLTY	-0.08 ± 1
YLEMMYVAFNFFNGIYCLFY	inactive
GQLNLGCWSYRGSRFWTWLR	inactive
FNYPSLFTF	-1.01 ± 1.1
YFNFIPGANRHDVSHFYGSY	0.299 ± 0.21
FTFILLGYVWRLLMYIPGMR	0.236 ± 1.1
KLFSYPIWWSRYCRMGRHRC	0.374 ± 0.28
LVEFSSRFQLGFTGSVNS	1.21 ± 0.16
WTHDVWSGSYEWARDGLDVK	-0.163 ± 0.79
RMGFWSLGSSSYNWYKTCVL	0.043 ± 0.74
ILSDKCLIGIGCSISSDTAG	-0.352 ± 0.38
